Assay results taken from patent publication US20150147764.

Columns and labels:
[1] = system: FRETS-VWF73 polypeptide substrate (SEQ ID NO: 6), VWF D1596 to R1668
[2] = system: GTI_FRET5 polypeptide substrate (SEQ ID NO: 7), synthetic 55 amino acid VWF A2 domain derived substrate
[3] = system: GTI_FRET4 polypeptide substrate (SEQ ID NO: 1), synthetic 62 amino acid VWF A2 domain derived substrate
Chain of GTI_FRET4 polypeptide substrate (SEQ ID NO: 1), synthetic 62 amino acid VWF A2 domain derived substrate (chain, as listed by the source): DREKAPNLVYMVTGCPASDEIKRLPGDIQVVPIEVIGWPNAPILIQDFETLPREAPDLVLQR

Chain of FRETS-VWF73 polypeptide substrate (SEQ ID NO: 6), VWF D1596 to R1668 (chain, as listed by the source): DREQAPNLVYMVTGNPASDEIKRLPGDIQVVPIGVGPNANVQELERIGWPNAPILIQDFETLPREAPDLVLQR
Chain of GTI_FRET5 polypeptide substrate (SEQ ID NO: 7), synthetic 55 amino acid VWF A2 domain derived substrate (chain, as listed by the source): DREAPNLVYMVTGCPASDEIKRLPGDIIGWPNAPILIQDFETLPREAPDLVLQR

ADAMTS13 (a disintegrin-like and metallopeptidase with thrombospondin type-1 motif, 13), as present in plasma samples, calibrators and controls
RFU difference between Calibrator A and Calibrator E at 30 minutes [1]: approximately 1500 to 2000 RFU difference | RFU difference between Calibrator A and E at 30 minutes [1]: 2500 RFU observed for FRETS-VWF73 | calibration curve / cleavage [2]: the resulting calibration curve that is obtained is linear (see FIG. 5) and cleavage of the substrate occurs | change in fluorescence with time (cleavage) [2]: demonstrates that cleavage of the SEQ ID NO: 7 polypeptide substrate occurs | Increase in fluorescence (15 min - 0 min reading), sample Calibrator A [3]: 676 RFU | Increase in fluorescence (15 min - 0 min reading), sample Calibrator B [3]: 1760 RFU | Increase in fluorescence (15 min - 0 min reading), sample Calibrator C [3]: 6180 RFU | Increase in fluorescence (15 min - 0 min reading), sample Calibrator D [3]: 10900 RFU | Increase in fluorescence (15 min - 0 min reading), sample Calibrator E [3]: 18700 RFU | Increase in fluorescence (15 min - 0 min reading), sample MON110707 [3]: 17900 RFU | Increase in fluorescence (15 min - 0 min reading), sample Positive Control High [3]: 9150 RFU | Increase in fluorescence (15 min - 0 min reading), sample Positive Control Low [3]: 2180 RFU | Increase in fluorescence (15 min - 0 min reading), sample UAMS041609 [3]: 3880 RFU | Increase in fluorescence (15 min - 0 min reading), sample VF [3]: 1290 RFU | Increase in fluorescence (30 min - 0 min reading), sample Calibrator A [3]: 843 RFU | Increase in fluorescence (30 min - 0 min reading), sample Calibrator B [3]: 3000 RFU | Increase in fluorescence (30 min - 0 min reading), sample Calibrator C [3]: 11700 RFU | Increase in fluorescence (30 min - 0 min reading), sample Calibrator D [3]: 20600 RFU | Increase in fluorescence (30 min - 0 min reading), sample Calibrator E [3]: 35100 RFU | Increase in fluorescence (30 min - 0 min reading), sample MON110707 [3]: 33400 RFU | Increase in fluorescence (30 min - 0 min reading), sample Positive Control High [3]: 17300 RFU | Increase in fluorescence (30 min - 0 min reading), sample Positive Control Low [3]: 3900 RFU | Increase in fluorescence (30 min - 0 min reading), sample UAMS041609 [3]: 7930 RFU | Increase in fluorescence (30 min - 0 min reading), sample VF [3]: 2440 RFU | Increase in fluorescence (45 min - 0 min reading), sample Calibrator A [3]: 921 RFU | Increase in fluorescence (45 min - 0 min reading), sample Calibrator B [3]: 4160 RFU | Increase in fluorescence (45 min - 0 min reading), sample Calibrator C [3]: 16800 RFU | Increase in fluorescence (45 min - 0 min reading), sample Calibrator D [3]: 29200 RFU | Increase in fluorescence (45 min - 0 min reading), sample Calibrator E [3]: 49400 RFU | Increase in fluorescence (45 min - 0 min reading), sample MON110707 [3]: 46800 RFU | Increase in fluorescence (45 min - 0 min reading), sample Positive Control High [3]: 24900 RFU | Increase in fluorescence (45 min - 0 min reading), sample Positive Control Low [3]: 5510 RFU | Increase in fluorescence (45 min - 0 min reading), sample UAMS041609 [3]: 11700 RFU | Increase in fluorescence (45 min - 0 min reading), sample VF [3]: 3550 RFU | Increase in fluorescence (60 min - 0 min reading), sample Calibrator A [3]: 1170 RFU | Increase in fluorescence (60 min - 0 min reading), sample Calibrator B [3]: 5360 RFU | Increase in fluorescence (60 min - 0 min reading), sample Calibrator C [3]: 21700 RFU | Increase in fluorescence (60 min - 0 min reading), sample Calibrator D [3]: 37300 RFU | Increase in fluorescence (60 min - 0 min reading), sample Calibrator E [3]: 61100 RFU | Increase in fluorescence (60 min - 0 min reading), sample MON110707 [3]: 58700 RFU | Increase in fluorescence (60 min - 0 min reading), sample Positive Control High [3]: 31900 RFU | Increase in fluorescence (60 min - 0 min reading), sample Positive Control Low [3]: 7170 RFU | Increase in fluorescence (60 min - 0 min reading), sample UAMS041609 [3]: 15900 RFU | Increase in fluorescence (60 min - 0 min reading), sample VF [3]: 4690 RFU | Increase in fluorescence (75 min - 0 min reading), sample Calibrator A [3]: 1010 RFU | Increase in fluorescence (75 min - 0 min reading), sample Calibrator B [3]: 6470 RFU | Increase in fluorescence (75 min - 0 min reading), sample Calibrator C [3]: 26700 RFU | Increase in fluorescence (75 min - 0 min reading), sample Calibrator D [3]: 44500 RFU | Increase in fluorescence (75 min - 0 min reading), sample Calibrator E [3]: 70600 RFU | Increase in fluorescence (75 min - 0 min reading), sample MON110707 [3]: 68400 RFU | Increase in fluorescence (75 min - 0 min reading), sample Positive Control High [3]: 39800 RFU | Increase in fluorescence (75 min - 0 min reading), sample Positive Control Low [3]: 8790 RFU | Increase in fluorescence (75 min - 0 min reading), sample UAMS041609 [3]: 19900 RFU | Increase in fluorescence (75 min - 0 min reading), sample VF [3]: 5780 RFU | Increase in fluorescence (90 min - 0 min reading), sample Calibrator A [3]: 959 RFU | Increase in fluorescence (90 min - 0 min reading), sample Calibrator B [3]: 7580 RFU | Increase in fluorescence (90 min - 0 min reading), sample Calibrator C [3]: 32200 RFU | Increase in fluorescence (90 min - 0 min reading), sample Calibrator D [3]: 53600 RFU | Increase in fluorescence (90 min - 0 min reading), sample Calibrator E [3]: 83000 RFU | Increase in fluorescence (90 min - 0 min reading), sample MON110707 [3]: 78400 RFU | Increase in fluorescence (90 min - 0 min reading), sample Positive Control High [3]: 47500 RFU | Increase in fluorescence (90 min - 0 min reading), sample Positive Control Low [3]: 10400 RFU | Increase in fluorescence (90 min - 0 min reading), sample UAMS041609 [3]: 24700 RFU | Increase in fluorescence (90 min - 0 min reading), sample VF [3]: 7260 RFU | RFU difference between Calibrator A (0% ADAMTS13 activity) and Calibrator E (100% ADAMTS13 activity) at 30 minutes [3]: approximately 34,000 Relative Fluorescence Units (RFU) difference | RFU difference between Calibrator A and E at 30 minutes [3]: approximately 35000 RFU
